Data: publication PMC11603127 (Computational and Structural Biotechnology Journal, 2024)

Columns and labels:
[1] = target: T1, Recombinant NAA10 (wild type) (human, UniProt P41227 1-235, labeled with Monolith NT Protein Labeling Kit RED); assay: MST
T1 sequence: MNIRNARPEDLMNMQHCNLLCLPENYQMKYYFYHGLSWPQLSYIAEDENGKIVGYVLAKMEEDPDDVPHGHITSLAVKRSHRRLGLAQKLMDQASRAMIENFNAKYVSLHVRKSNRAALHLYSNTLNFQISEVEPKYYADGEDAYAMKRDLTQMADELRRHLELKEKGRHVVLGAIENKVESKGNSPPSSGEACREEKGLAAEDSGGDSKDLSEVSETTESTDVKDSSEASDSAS

Recombinant NAA10^F128L = target: T2, Recombinant NAA10^F128L (human, UniProt P41227 1-235, F128L, labeled with Monolith NT Protein Labeling Kit RED); assay: MST
T2 sequence: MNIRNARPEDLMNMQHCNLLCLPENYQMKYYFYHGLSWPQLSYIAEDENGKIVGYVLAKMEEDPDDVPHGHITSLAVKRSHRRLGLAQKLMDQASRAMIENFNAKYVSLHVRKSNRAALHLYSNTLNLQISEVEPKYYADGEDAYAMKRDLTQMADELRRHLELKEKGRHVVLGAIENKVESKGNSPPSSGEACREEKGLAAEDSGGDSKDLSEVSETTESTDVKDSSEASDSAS

B1: EEEI24 oligopeptide (peptide)
peptide: EEEIAALRWGRPVGRRRRPVRVYP
**Q.** Does B1 bind [1]?
**A.** binds

**Q.** Does B1 bind (Recombinant NAA10^F128L)?
**A.** binds
